Experimental data: the supplement of paper PMC9112550, “Optimization of the antimicrobial peptide Bac7 by deep mutational scanning” (BMC Biology, 2022)

Test system: Escherichia coli TOP10
Experiment: shrunken log2 fold change of peptide-encoding DNA abundance (4.5 h post-induction vs induction); higher = less antimicrobial activity (less host growth inhibition)
Conditions: time post-induction: 4.5 h; library: site-saturation at positions 5, 18, 19, 20
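Also: peptides expressed intracellularly from a pBAD plasmid library in pooled LB shake-flask culture, induced with 0.3% L-arabinose, DNA abundance read by NGS, three biological replicates, DESeq2 with apeglm shrinkage.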

Sequence: RRIRIRPPRLPRPRPRPQLQPRP
- shrunken log2 fold change: -0.0769

Sequence: RRIRGRPPRLPRPRPRPNARPRP
- shrunken log2 fold change: 0.501

Sequence: RRIRLRPPRLPRPRPRPEVHPRP
- shrunken log2 fold change: 0.101

Sequence: RRIRHRPPRLPRPRPRPTAPPRP
- shrunken log2 fold change: 0.184

Sequence: RRIRSRPPRLPRPRPRPTGSPRP
- shrunken log2 fold change: 0.0396

Sequence: RRIRHRPPRLPRPRPRPSRCPRP
- shrunken log2 fold change: -0.648

Sequence: RRIRWRPPRLPRPRPRPGDWPRP
- shrunken log2 fold change: 0.655

Sequence: RRIRQRPPRLPRPRPRPRQLPRP
- shrunken log2 fold change: 0.0166

Sequence: RRIRCRPPRLPRPRPRPVHEPRP
- shrunken log2 fold change: -0.073

Sequence: RRIRRRPPRLPRPRPRPAFMPRP
- shrunken log2 fold change: 0.169

Sequence: RRIRDRPPRLPRPRPRPDGTPRP
- shrunken log2 fold change: 0.184

Sequence: RRIRKRPPRLPRPRPRPATHPRP
- shrunken log2 fold change: 0.426

Sequence: RRIRCRPPRLPRPRPRPDKDPRP
- shrunken log2 fold change: -0.0474

Sequence: RRIRFRPPRLPRPRPRPQHPPRP
- shrunken log2 fold change: -0.326

Sequence: RRIRGRPPRLPRPRPRPQDCPRP
- shrunken log2 fold change: 0.0863

Sequence: RRIRDRPPRLPRPRPRPMCNPRP
- shrunken log2 fold change: -0.0221

Sequence: RRIRERPPRLPRPRPRPIGIPRP
- shrunken log2 fold change: -0.123

Sequence: RRIRDRPPRLPRPRPRPDFVPRP
- shrunken log2 fold change: 1.35

Sequence: RRIRGRPPRLPRPRPRPVDVPRP
- shrunken log2 fold change: 0.447

Sequence: RRIRCRPPRLPRPRPRPTTKPRP
- shrunken log2 fold change: -0.0602

Sequence: RRIRMRPPRLPRPRPRPPFWPRP
- shrunken log2 fold change: 1.2

Sequence: RRIRIRPPRLPRPRPRPKDSPRP
- shrunken log2 fold change: -0.273

Sequence: RRIRHRPPRLPRPRPRPVNQPRP
- shrunken log2 fold change: -0.0313

Sequence: RRIRYRPPRLPRPRPRPHFKPRP
- shrunken log2 fold change: -0.346

Sequence: RRIRIRPPRLPRPRPRPEKAPRP
- shrunken log2 fold change: -0.0795

Sequence: RRIRFRPPRLPRPRPRPEHLPRP
- shrunken log2 fold change: -0.223

Sequence: RRIRHRPPRLPRPRPRPNSRPRP
- shrunken log2 fold change: -0.0698

Sequence: RRIRTRPPRLPRPRPRPCIHPRP
- shrunken log2 fold change: -0.11

Sequence: RRIRRRPPRLPRPRPRPVRYPRP
- shrunken log2 fold change: 0.181

Sequence: RRIRNRPPRLPRPRPRPWKLPRP
- shrunken log2 fold change: -0.0134

Sequence: RRIRTRPPRLPRPRPRPECKPRP
- shrunken log2 fold change: 0.165

Sequence: RRIRIRPPRLPRPRPRPTDPPRP
- shrunken log2 fold change: -0.223

Sequence: RRIRERPPRLPRPRPRPCKKPRP
- shrunken log2 fold change: 0.0187

Sequence: RRIRPRPPRLPRPRPRPYYYPRP
- shrunken log2 fold change: -0.937

Sequence: RRIRLRPPRLPRPRPRPFSNPRP
- shrunken log2 fold change: -1.04

Sequence: RRIRDRPPRLPRPRPRPFNPPRP
- shrunken log2 fold change: -0.509

Sequence: RRIRQRPPRLPRPRPRPNRIPRP
- shrunken log2 fold change: -0.0402

Sequence: RRIRSRPPRLPRPRPRPDVIPRP
- shrunken log2 fold change: 0.0141

Sequence: RRIRGRPPRLPRPRPRPTHGPRP
- shrunken log2 fold change: 0.487

Sequence: RRIRMRPPRLPRPRPRPAKDPRP
- shrunken log2 fold change: 0.042

Sequence: RRIRWRPPRLPRPRPRPSCCPRP
- shrunken log2 fold change: 0.174

Sequence: RRIRARPPRLPRPRPRPTGKPRP
- shrunken log2 fold change: 0.215

Sequence: RRIRIRPPRLPRPRPRPEYWPRP
- shrunken log2 fold change: -0.0686

Sequence: RRIRYRPPRLPRPRPRPAEAPRP
- shrunken log2 fold change: 0.0062

Sequence: RRIRFRPPRLPRPRPRPWGFPRP
- shrunken log2 fold change: 0.0091

Sequence: RRIRKRPPRLPRPRPRPSYFPRP
- shrunken log2 fold change: -0.029

Sequence: RRIRGRPPRLPRPRPRPPAPPRP
- shrunken log2 fold change: 1.6

Sequence: RRIRNRPPRLPRPRPRPHPGPRP
- shrunken log2 fold change: -0.0788

Sequence: RRIRKRPPRLPRPRPRPNDHPRP
- shrunken log2 fold change: -0.177

Sequence: RRIRRRPPRLPRPRPRPKFHPRP
- shrunken log2 fold change: 0.323

Sequence: RRIRVRPPRLPRPRPRPFRYPRP
- shrunken log2 fold change: -0.0399

Sequence: RRIRARPPRLPRPRPRPPWCPRP
- shrunken log2 fold change: 0.373

Sequence: RRIRSRPPRLPRPRPRPFSHPRP
- shrunken log2 fold change: -0.388

Sequence: RRIRNRPPRLPRPRPRPCPGPRP
- shrunken log2 fold change: 0.00341

Sequence: RRIRWRPPRLPRPRPRPGCGPRP
- shrunken log2 fold change: 0.784

Sequence: RRIRCRPPRLPRPRPRPNPHPRP
- shrunken log2 fold change: -0.158

Sequence: RRIRPRPPRLPRPRPRPYNVPRP
- shrunken log2 fold change: -0.0809

Sequence: RRIRVRPPRLPRPRPRPKVDPRP
- shrunken log2 fold change: 0.0982

Sequence: RRIRIRPPRLPRPRPRPPWGPRP
- shrunken log2 fold change: 0.0517

Sequence: RRIRGRPPRLPRPRPRPHGKPRP
- shrunken log2 fold change: 0.513

Sequence: RRIRDRPPRLPRPRPRPLTHPRP
- shrunken log2 fold change: 0.179

Sequence: RRIRKRPPRLPRPRPRPLVWPRP
- shrunken log2 fold change: 0.298

Sequence: RRIRMRPPRLPRPRPRPSPVPRP
- shrunken log2 fold change: 0.384

Sequence: RRIRMRPPRLPRPRPRPPSRPRP
- shrunken log2 fold change: 1.01

Sequence: RRIRKRPPRLPRPRPRPEMHPRP
- shrunken log2 fold change: 0.0496

Sequence: RRIRCRPPRLPRPRPRPCKEPRP
- shrunken log2 fold change: -0.35

Sequence: RRIRARPPRLPRPRPRPFHTPRP
- shrunken log2 fold change: -0.0492

Sequence: RRIRDRPPRLPRPRPRPFGCPRP
- shrunken log2 fold change: -0.109

Sequence: RRIRNRPPRLPRPRPRPASVPRP
- shrunken log2 fold change: -0.0792

Sequence: RRIRQRPPRLPRPRPRPAILPRP
- shrunken log2 fold change: 0.312

Sequence: RRIRARPPRLPRPRPRPCKCPRP
- shrunken log2 fold change: -0.0835

Sequence: RRIRLRPPRLPRPRPRPMCHPRP
- shrunken log2 fold change: -0.0587

Sequence: RRIRVRPPRLPRPRPRPYKPPRP
- shrunken log2 fold change: -0.757

Sequence: RRIRSRPPRLPRPRPRPIRWPRP
- shrunken log2 fold change: 0.0723

Sequence: RRIRARPPRLPRPRPRPGRNPRP
- shrunken log2 fold change: 0.419

Sequence: RRIRHRPPRLPRPRPRPWAFPRP
- shrunken log2 fold change: 0.0477

Sequence: RRIRERPPRLPRPRPRPIMIPRP
- shrunken log2 fold change: -0.246

Sequence: RRIRWRPPRLPRPRPRPALRPRP
- shrunken log2 fold change: 0.243

Sequence: RRIRYRPPRLPRPRPRPDTFPRP
- shrunken log2 fold change: -0.016

Sequence: RRIRGRPPRLPRPRPRPAIMPRP
- shrunken log2 fold change: 1

Sequence: RRIRSRPPRLPRPRPRPDLAPRP
- shrunken log2 fold change: 0.444

Sequence: RRIRWRPPRLPRPRPRPVSWPRP
- shrunken log2 fold change: 0.782

Sequence: RRIRGRPPRLPRPRPRPHSQPRP
- shrunken log2 fold change: 0.322

Sequence: RRIRFRPPRLPRPRPRPEYSPRP
- shrunken log2 fold change: 5.84e-05

Sequence: RRIRLRPPRLPRPRPRPGINPRP
- shrunken log2 fold change: -0.354

Sequence: RRIRMRPPRLPRPRPRPNRGPRP
- shrunken log2 fold change: 0.218

Sequence: RRIRIRPPRLPRPRPRPFSAPRP
- shrunken log2 fold change: -0.517

Sequence: RRIRCRPPRLPRPRPRPHEFPRP
- shrunken log2 fold change: -0.267

Sequence: RRIRKRPPRLPRPRPRPGVWPRP
- shrunken log2 fold change: 0.786

Sequence: RRIRVRPPRLPRPRPRPARLPRP
- shrunken log2 fold change: 0.266

Sequence: RRIRFRPPRLPRPRPRPLLEPRP
- shrunken log2 fold change: -0.0853

Sequence: RRIRFRPPRLPRPRPRPYNFPRP
- shrunken log2 fold change: -0.458

Sequence: RRIRWRPPRLPRPRPRPKCAPRP
- shrunken log2 fold change: 0.706

Sequence: RRIRDRPPRLPRPRPRPAYGPRP
- shrunken log2 fold change: -0.11

Sequence: RRIRTRPPRLPRPRPRPGPCPRP
- shrunken log2 fold change: 0.219

Sequence: RRIRKRPPRLPRPRPRPWHRPRP
- shrunken log2 fold change: -0.0754

Sequence: RRIRARPPRLPRPRPRPGPEPRP
- shrunken log2 fold change: 1.61

Sequence: RRIRCRPPRLPRPRPRPSDSPRP
- shrunken log2 fold change: -0.34

Sequence: RRIRVRPPRLPRPRPRPQPTPRP
- shrunken log2 fold change: 0.408

Sequence: RRIRWRPPRLPRPRPRPAAEPRP
- shrunken log2 fold change: 1.21

Sequence: RRIRVRPPRLPRPRPRPMPHPRP
- shrunken log2 fold change: -0.227

Sequence: RRIRLRPPRLPRPRPRPWTKPRP
- shrunken log2 fold change: -0.139

Sequence: RRIRTRPPRLPRPRPRPHMRPRP
- shrunken log2 fold change: 0.161

Sequence: RRIRFRPPRLPRPRPRPQMYPRP
- shrunken log2 fold change: -0.725

Sequence: RRIRVRPPRLPRPRPRPIVKPRP
- shrunken log2 fold change: -0.0955

Sequence: RRIRCRPPRLPRPRPRPPQYPRP
- shrunken log2 fold change: -0.0607

Sequence: RRIRMRPPRLPRPRPRPVFCPRP
- shrunken log2 fold change: 0.388

Sequence: RRIRMRPPRLPRPRPRPDRCPRP
- shrunken log2 fold change: 0.0778

Sequence: RRIRPRPPRLPRPRPRPFVDPRP
- shrunken log2 fold change: -0.319

Sequence: RRIRKRPPRLPRPRPRPWRLPRP
- shrunken log2 fold change: -0.0807

Sequence: RRIRCRPPRLPRPRPRPTSTPRP
- shrunken log2 fold change: -0.165

Sequence: RRIRKRPPRLPRPRPRPEHEPRP
- shrunken log2 fold change: 1.09

Sequence: RRIRTRPPRLPRPRPRPVRVPRP
- shrunken log2 fold change: 0.229

Sequence: RRIRLRPPRLPRPRPRPLPRPRP
- shrunken log2 fold change: 0.475

Sequence: RRIRFRPPRLPRPRPRPCTYPRP
- shrunken log2 fold change: -0.384

Sequence: RRIRNRPPRLPRPRPRPFHWPRP
- shrunken log2 fold change: -0.186

Sequence: RRIRTRPPRLPRPRPRPPGVPRP
- shrunken log2 fold change: 0.182

Sequence: RRIRSRPPRLPRPRPRPHVEPRP
- shrunken log2 fold change: 0.121

Sequence: RRIRFRPPRLPRPRPRPAIIPRP
- shrunken log2 fold change: -0.149

Sequence: RRIRMRPPRLPRPRPRPTMMPRP
- shrunken log2 fold change: 0.168

Sequence: RRIRTRPPRLPRPRPRPRHAPRP
- shrunken log2 fold change: 0.329

Sequence: RRIRYRPPRLPRPRPRPWCEPRP
- shrunken log2 fold change: -0.468

Sequence: RRIRQRPPRLPRPRPRPRQNPRP
- shrunken log2 fold change: 0.402

Sequence: RRIRERPPRLPRPRPRPYRFPRP
- shrunken log2 fold change: -0.708

Sequence: RRIRFRPPRLPRPRPRPMYFPRP
- shrunken log2 fold change: -0.331

Sequence: RRIRHRPPRLPRPRPRPMSNPRP
- shrunken log2 fold change: 0.00049

Sequence: RRIRCRPPRLPRPRPRPLIWPRP
- shrunken log2 fold change: -0.177

Sequence: RRIRMRPPRLPRPRPRPPHSPRP
- shrunken log2 fold change: 0.851

Sequence: RRIRNRPPRLPRPRPRPLTPPRP
- shrunken log2 fold change: 0.136

Sequence: RRIRDRPPRLPRPRPRPANSPRP
- shrunken log2 fold change: 2.98

Sequence: RRIRLRPPRLPRPRPRPNCMPRP
- shrunken log2 fold change: -0.415

Sequence: RRIRMRPPRLPRPRPRPILYPRP
- shrunken log2 fold change: -0.0871

Sequence: RRIRIRPPRLPRPRPRPGRMPRP
- shrunken log2 fold change: 0.198

Sequence: RRIRDRPPRLPRPRPRPDMIPRP
- shrunken log2 fold change: 0.0954

Sequence: RRIRSRPPRLPRPRPRPEVFPRP
- shrunken log2 fold change: 0.0779

Sequence: RRIRPRPPRLPRPRPRPLLLPRP
- shrunken log2 fold change: -0.208

Sequence: RRIRLRPPRLPRPRPRPHTRPRP
- shrunken log2 fold change: -0.0601

Sequence: RRIRPRPPRLPRPRPRPQIAPRP
- shrunken log2 fold change: 0.115

Sequence: RRIRIRPPRLPRPRPRPSLPPRP
- shrunken log2 fold change: -0.491

Sequence: RRIRLRPPRLPRPRPRPGDFPRP
- shrunken log2 fold change: 0.017

Sequence: RRIRGRPPRLPRPRPRPPNWPRP
- shrunken log2 fold change: 0.862

Sequence: RRIRNRPPRLPRPRPRPQGEPRP
- shrunken log2 fold change: -0.422

Sequence: RRIRMRPPRLPRPRPRPMHNPRP
- shrunken log2 fold change: 0.0989

Sequence: RRIRERPPRLPRPRPRPSYPPRP
- shrunken log2 fold change: -0.877

Sequence: RRIRMRPPRLPRPRPRPQSTPRP
- shrunken log2 fold change: 0.21

Sequence: RRIRFRPPRLPRPRPRPITVPRP
- shrunken log2 fold change: -0.177

Sequence: RRIRWRPPRLPRPRPRPQRAPRP
- shrunken log2 fold change: 0.66

Sequence: RRIRHRPPRLPRPRPRPQKIPRP
- shrunken log2 fold change: 0.0342

Sequence: RRIRPRPPRLPRPRPRPTWCPRP
- shrunken log2 fold change: 0.08

Sequence: RRIRARPPRLPRPRPRPHPEPRP
- shrunken log2 fold change: 0.7
